Molecular target: T1, MCT2 tagged at its N-terminus with CFP (rat, UniProt Q63344 1-489)
T1 construct: Monocarboxylate transporter MCT2; also called MCT2-ECFP (N-terminal); MCT2-CFP; source: COS-7, transiently transfected (Fugene 6), in live cells; not shown: ECFP, N-terminal, kept
T1 sequence (looked up): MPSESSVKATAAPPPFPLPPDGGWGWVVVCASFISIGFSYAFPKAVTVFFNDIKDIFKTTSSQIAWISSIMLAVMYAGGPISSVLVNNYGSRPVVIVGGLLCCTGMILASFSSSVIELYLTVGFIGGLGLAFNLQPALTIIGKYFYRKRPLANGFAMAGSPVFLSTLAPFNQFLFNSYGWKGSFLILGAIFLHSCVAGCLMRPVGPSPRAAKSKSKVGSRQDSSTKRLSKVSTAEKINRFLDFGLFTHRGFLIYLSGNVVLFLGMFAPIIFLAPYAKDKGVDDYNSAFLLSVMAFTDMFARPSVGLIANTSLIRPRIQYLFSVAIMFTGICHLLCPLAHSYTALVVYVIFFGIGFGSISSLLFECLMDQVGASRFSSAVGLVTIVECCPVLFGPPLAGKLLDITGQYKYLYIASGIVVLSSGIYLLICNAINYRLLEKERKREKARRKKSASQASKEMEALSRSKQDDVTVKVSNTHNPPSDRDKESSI
Assay: FRET or BRET; live COS-7 cells co-transfected with MCT2-ECFP (N-terminal) and np55- or np65-EYFP (C-terminal), 48 h after transfection; 37°C, imaging buffer pH 7.4; ratio of emission at 480 nm to 530 nm on excitation at 430 nm (MCT2-CFP alone 1.33±0.016)
Conditions: partners not purified

B1: np65 C-terminally labelled with YFP (natural protein)
chain: not shown
notes: Neuroplastin np65, the form with 3 Ig domains; also called np65-EYFP (C-terminal); np65-YFP; source: COS-7, transiently transfected (Fugene 6), in live cells; not shown: EYFP, C-terminal, kept
480:530 nm fluorescence emission ratio (FRET): 0.792

Source: paper PMC3832594, “The Neuroplastin Adhesion Molecules Are Accessory Proteins That Chaperone the Monocarboxylate Transporter MCT2 to the Neuronal Cell Surface” (PLoS ONE, 2013)
